For two substances, stoichiometry N results are on record in publication PMC3767657.

Test [1] deals with HIV-1 integrase (IN) T174I, in virus particles (HIV-1 (NL4.3-based vector)). The test is described as follows: cross-linking; purified virus (50 ng p24 equivalents) in PBS/0.25% Triton X-100 treated with BS3 for 20 min at room temperature, quenched with Tris-HCl pH 7.5, reducing SDS-PAGE, anti-IN Western blot; virus produced in the presence of DMSO or 1 uM GS-B, or cell-free virus treated with GS-B.

The target of test [2] is HIV-1 integrase (IN), wild type, in virus particles (HIV-1 (NL4.3-based vector)). Described as above.

As to “HIV-1 integrase (IN) T174I, in virus particles (enzyme)”, in test [1], the stoichiometry N is 2.
For “HIV-1 integrase (IN), wild type, in virus particles (enzyme)”, the stoichiometry N in test [2] stood at 2.

In general, stoichiometry N refers to the number of molecules, sites or subunits per partner or assembly.
